From US8501692 (REGENTS OF THE UNIVERSITY OF MICHIGAN, dated 2013)

Molecular target: the molecule itself
Assay: SDS-PAGE after oxidation with CuCl2
Experimental: Oxidation: Purified proteins were oxidized in 50 mM Tris pH 8.0 buffer containing 100 μm CuCl_2 overnight at 4° C. CuCl_2 was then removed by chelating it by adding 1 mM EDTA to the above mixture. Protein was further purified by passing it through Q Sepharose column and eluting off the column with 150-500 mM NaCl gradient. Fractions containing purified oxidized protein were identified by running on a SDS-PAGE gel under non-reducing conditions and pooled and concentrated to 5 mg/ml and snap frozen in liq N_2 and stored at −80° C.

| Protein | binding result |
| --- | --- |
| G4C/S10C/T172R/G173Q CocE with H6 tag (enzyme, oxidized with CuCl2: disulfide bridge between Cys 4 of one monomer and Cys 10 of the other monomer, Cloned and expressed like the CC mutant (C-terminal His tag); Cross-linked homodimer; also called CCRQ; CCRQ-CocE) MVDCNYSVACNVMVPMRDGVRLAVDLYRPDADGPVPVLLVRNPYDKFDVFAWSTQSTNWLEFVRDGYAVVIQDTRGLFASEGEFVPHVDDEADAEDTLSWILEQAWCDGNVGMFGVSYLGVTQWQAAVSGVGGLKAIAPSMASADLYRAPWYGPGGALSVEALLGWSALIGRQLITSRSDARPEDAADFVQLAAILNDVAGAASVTPLAEQPLLGRLIPWVIDQVVDHPDNDESWQSISLFERLGGLATPALITAGWYDGFVGESLRTFVAVKDNADARLVVGPWSHSNLTGRNADRKFGIAATYPIQEATTMHKAFFDRHLRGETDALAGVPKVRLFVMGIDEWRDETDWPLPDTAYTPFYLGGSGAANTSTGGGTLSTSISGTESADTYLYDPADPVPSLGGTLLFHNGDNGPADQRPIHDRDDVLCYSTEVLTDPVEVTGTVSARLFVSSSAVDTDFTAKLVDVFPDGRAIALCDGIVRMRYRETLVNPTLIEAGEIYEVAIDMLATSNVFLPGHRIMVQVSSSNFPKYDRNSNTGGVIAREQLEEMCTAVNRIHRGPEHPSHIVLPIIKRKLAAALEHHHHHH | binds |
| G4C/S10C/L169K/G173Q CocE with H6 tag (enzyme, oxidized with CuCl2: disulfide bridge between Cys 4 of one monomer and Cys 10 of the other monomer, Cloned and expressed like the CC mutant (C-terminal His tag); Cross-linked homodimer; also called CCKQ; CCKQ tetramutant) MVDCNYSVACNVMVPMRDGVRLAVDLYRPDADGPVPVLLVRNPYDKFDVFAWSTQSTNWLEFVRDGYAVVIQDTRGLFASEGEFVPHVDDEADAEDTLSWILEQAWCDGNVGMFGVSYLGVTQWQAAVSGVGGLKAIAPSMASADLYRAPWYGPGGALSVEALLGWSAKIGTQLITSRSDARPEDAADFVQLAAILNDVAGAASVTPLAEQPLLGRLIPWVIDQVVDHPDNDESWQSISLFERLGGLATPALITAGWYDGFVGESLRTFVAVKDNADARLVVGPWSHSNLTGRNADRKFGIAATYPIQEATTMHKAFFDRHLRGETDALAGVPKVRLFVMGIDEWRDETDWPLPDTAYTPFYLGGSGAANTSTGGGTLSTSISGTESADTYLYDPADPVPSLGGTLLFHNGDNGPADQRPIHDRDDVLCYSTEVLTDPVEVTGTVSARLFVSSSAVDTDFTAKLVDVFPDGRAIALCDGIVRMRYRETLVNPTLIEAGEIYEVAIDMLATSNVFLPGHRIMVQVSSSNFPKYDRNSNTGGVIAREQLEEMCTAVNRIHRGPEHPSHIVLPIIKRKLAAALEHHHHHH | binds |
